2 molecules from article PMC8724787 can be followed below.

Read-outs that look alike come from different tables or passages of the source.

The target in this experiment is DENV1 strain Hawaii envelope (E) protein on virions (Dengue virus 1 (strain Hawaii)). Kind of experiment: ELISA; apparent. Background: In an ELISA, binding on a coated surface is turned into a signal by an enzyme label.

B1: C10 intact bivalent IgG1 (human monoclonal antibody EDE1 C10) (protein)
chain 1: EVQLVESGAEVKKPGASVKVSCKASGYTFTSYAMHWVRQAPGQRLEWMGWINAGNGNTKYSQKFQDRVTITRDTSASTAYMELSSLRSEDTAIYYCARDKVDDYGDYWFPTLWYFDYWGQGTLVTVSS
chain 2: QSALTQPASVSGSPGQSITISCTGTSSDVGGFNYVSWFQQHPGKAPKLMLYDVTSRPSGVSSRFSGSKSGNTASLTISGLQAEDEADYYCSSHTSRGTWVFGGGTKLTVL
B1: the Kd is 2.6 nM.

B2: C10 monovalent antigen binding fragment (Fab) (protein)
chain 1: EVQLVESGAEVKKPGASVKVSCKASGYTFTSYAMHWVRQAPGQRLEWMGWINAGNGNTKYSQKFQDRVTITRDTSASTAYMELSSLRSEDTAIYYCARDKVDDYGDYWFPTLWYFDYWGQGTLVTVSS
chain 2: QSALTQPASVSGSPGQSITISCTGTSSDVGGFNYVSWFQQHPGKAPKLMLYDVTSRPSGVSSRFSGSKSGNTASLTISGLQAEDEADYYCSSHTSRGTWVFGGGTKLTVL
Regarding B2, the Kd (Fab) turned out to be 9.85 nM.
